According to patent US20220177587A1, “METHODS AND USES OF VARIANT CD80 FUSION PROTEINS AND RELATED CONSTRUCTS” (Alpine Immune Sciences, Inc., priority 2018, published 2022):

Experiments:
CD28 [1] = biological target: T1, CD28 (Homo sapiens, UniProt P10747); assay: Flow binding to Jurkat/IL2 reporter cells (CD28); design: host or cells: Jurkat cells expressing an IL-2-luciferase reporter
Summary of the method: (§1)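 Cells were first blocked in PBS with 1% BSA and 0.1% sodium azide. Primary staining with fusion protein ran 45 min on ice, and secondary staining with PE anti-human Fc at 1:150 ran 30 min on ice.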

CD28 [2] = biological target: T1, CD28; assay: Jurkat/IL2 + CHO/OKT3 +/- PD-L1 reporter assay: PD-L1-dependent CD28 costimulation; format: cell-based; design: host or cells: Jurkat cells expressing an IL-2-luciferase reporter; settings: Jurkat/IL2 + CHO/OKT3/PD-L1
Summary of the method: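 Readout is relative luminescence from lysed cocultures: test protein given 15 min at room temperature to Jurkat cells before adding CHO artificial APCs displaying OKT3 alone or OKT3 plus PD-L1, then 5 h at 37 °C, 5% CO2.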

huCTLA4 = huCTLA4 (Homo sapiens, UniProt P16410); assay: Flow binding to CHO cells stably expressing CTLA4; design: huCTLA4 and huPD-L1, full-length mammalian surface expression constructs were generated; expressed in transfected cells; host or cells: CHO cells, lentiviral transduction, sorted to >98% purity; settings: for CTLA4 MFI at 33.3 nM: CHO cells stably expressing CTLA4
Chain of huCTLA4 (P16410 36-223): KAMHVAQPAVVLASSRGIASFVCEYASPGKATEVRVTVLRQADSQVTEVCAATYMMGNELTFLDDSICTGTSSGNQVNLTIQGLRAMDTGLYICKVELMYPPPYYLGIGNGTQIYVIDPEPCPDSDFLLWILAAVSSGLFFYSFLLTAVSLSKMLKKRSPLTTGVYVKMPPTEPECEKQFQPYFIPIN
Summary of the method: as §1

huPD-L1 = huPD-L1 (Homo sapiens, UniProt Q9NZQ7); assay: Flow binding to CHO cells stably expressing PD-L1; design: huCTLA4 and huPD-L1, full-length mammalian surface expression constructs were generated; expressed in transfected cells; host or cells: CHO cells, lentiviral transduction, sorted to >98% purity; settings: for PD-L1 MFI at 33.3 nM: CHO cells stably expressing PD-L1
Chain of huPD-L1 (Q9NZQ7 19-290): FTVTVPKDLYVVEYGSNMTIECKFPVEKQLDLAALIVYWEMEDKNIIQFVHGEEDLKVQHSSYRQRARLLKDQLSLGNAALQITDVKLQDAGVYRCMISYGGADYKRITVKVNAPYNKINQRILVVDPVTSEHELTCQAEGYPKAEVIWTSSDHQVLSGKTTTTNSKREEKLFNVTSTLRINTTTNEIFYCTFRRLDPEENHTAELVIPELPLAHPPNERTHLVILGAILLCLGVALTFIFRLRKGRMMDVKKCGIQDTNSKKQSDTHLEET
Summary of the method: as §1

[3] = Table E23, CD80 IgV-Fc (inert) at 33.3 nM, Jurkat (CD28)
[4] = Table E23, CD80 IgV-Fc (inert) at 33.3 nM
[5] = Table E10, 33.3 nM, Jurkats (CD28)
[6] = Table E10, 33.3 nM, relative to CD80 WT IgV-Fc
[7] = Table E10, binding to PD-L1 compared to binding to CD28
[8] = Table E19, MFI at 33.3 nM relative to WT CD80 ECD-Fc (Abcam)

CD28 MFI at 33.3 nM (CD28 [1]; [5])	CD28 Fold change to WT CD80 (CD28 [1]; [6])	Fold Increase over WT CD80-IgV-Fe (CD28 [2]; Table E12, 5.0 nM)	Relative Luciferase Units (RLU), CD80 Cone 5.0 nM (CD28 [2]; Table E12, 5.0 nM) [RLU]	CTLA4 MFI at 33.3 nM (huCTLA4; Table E10, 33.3 nM)	CTLA4 Fold change to WT CD80 (huCTLA4; [6])	PD-L1 MFI at 33.3 nM (huPD-L1; Table E10, 33.3 nM)	PD-L1 Fold change to WT CD80 (huPD-L1; [6])	Ratio of PDL1:CD28 (huPD-L1; [7])	Molecule	other results
–	–	–	–	–	–	–	–	–	A26P/E35D/M47I/V68M/A71G/D90G (protein, UniProt P33681 35-288, looked up, variant A26P E35D M47I V68M A71G D90G) T-lymphocyte activation …: VIHVTKEVKEVATLSCGHNVSVEELPQTRIYWQKDKKMVLTMMSGDINIWPEYKNRTIFDITNNLSIMILGLRPSDEGTYECVVLKYEKGAFKREHLAEVTLSVKADFPTPSISDFEIPTSNIRRIICSTSGGFPEPHLSWLENGEELNAINTTVSQDPETELYAVSSKLDFNMTTNHSFMCLIKYGHLRVNQTFNWNTTKQEHFPDNLLPSWAITLISVNGIFVICCLTYCFAPRCRERRRNERLRRESVRPV	CD28 MFI at 33.3 nM (CD28 [1]; [3]): 8189; Relative Luciferase Units (RLU), CD80 Conc 5.0 nM (CD28 [2]; Table E24, 5.0 nM): 823 RLU; CTLA4 MFI at 33.3 nM (huCTLA4; [4]): 19761
–	–	–	–	–	–	–	–	–	H18F/A26P/E35D/M47I/V68M/A71G/D90G (protein, UniProt P33681 35-288, looked up, variant H18F A26P E35D M47I V68M A71G D90G) T-lymphocyte activation …: VIHVTKEVKEVATLSCGFNVSVEELPQTRIYWQKDKKMVLTMMSGDINIWPEYKNRTIFDITNNLSIMILGLRPSDEGTYECVVLKYEKGAFKREHLAEVTLSVKADFPTPSISDFEIPTSNIRRIICSTSGGFPEPHLSWLENGEELNAINTTVSQDPETELYAVSSKLDFNMTTNHSFMCLIKYGHLRVNQTFNWNTTKQEHFPDNLLPSWAITLISVNGIFVICCLTYCFAPRCRERRRNERLRRESVRPV	CD28 MFI at 33.3 nM (CD28 [1]; [3]): 4801; Relative Luciferase Units (RLU), CD80 Conc 5.0 nM (CD28 [2]; Table E24, 5.0 nM): 926 RLU; CTLA4 MFI at 33.3 nM (huCTLA4; [4]): 23932
1325	20.1	4.0	1601	28420	14.8	7328	104.2	6	D46V/M47I/A71G (protein) VIHVTKEVKEVATLSCGHNVSVEELAQTRIYWQKEKKMVLTMMSGVINIWPEYKNRTIFDITNNLSIVILGLRPSDEGTYECVVLKYEKDAFKREHLAEVTLSVKAD	–
1000	15.2	4.1	1641	23292	12.2	7763	110.4	8	M43I/M47L/A71G (protein) VIHVTKEVKEVATLSCGHNVSVEELAQTRIYWQKEKKMVLTMISGDLNIWPEYKNRTIFDITNNLSIVILGLRPSDEGTYECVVLKYEKDAFKREHLAEVTLSVKAD	–
199	3.0	3.8	1513	16609	8.7	8312	118.2	42	E35D/M47L/A71G/L85M (protein) VIHVTKEVKEVATLSCGHNVSVEELAQTRIYWQKDKKMVLTMMSGDLNIWPEYKNRTIFDITNNLSIVILGLRPSDEGTYECVVMKYEKDAFKREHLAEVTLSVKAD	–
528	8.0	4.7	1898	24218	12.6	7582	107.9	14	H18Y/E35D/M47L/A71G/A91S (protein) VIHVTKEVKEVATLSCGYNVSVEELAQTRIYWQKDKKMVLTMMSGDLNIWPEYKNRTIFDITNNLSIVILGLRPSDEGTYECVVLKYEKDSFKREHLAEVTLSVKAD	–
461	7.0	3.4	1353	20893	10.9	2935	41.7	6	E35D/M47V (protein) VIHVTKEVKEVATLSCGHNVSVEELAQTRIYWQKDKKMVLTMMSGDVNIWPEYKNRTIFDITNNLSIVILALRPSDEGTYECVVLKYEKDAFKREHLAEVTLSVKAD	CD28 MFI at 33.3 nM (CD28 [1]; Table E19, Jurkats (CD28), 33.3 nM): 501; CD28 Fold change to WT CD80 (CD28 [1]; [8]): 0.7 fold; Fold Increase over WT CD80-IgV-Fe (CD28 [2]; Table E21, 5.0 nM): 4.7 fold; Relative Luciferase Units (RLU), CD80 Conc 5.0 nM (CD28 [2]; Table E21, CD80 Conc 5.0 nM): 543 RLU; CTLA4 MFI at 33.3 nM (huCTLA4; Table E19, 33.3 nM): 44569; CTLA4 Fold change to WT CD80 (huCTLA4; [8]): 1.1 fold; PD-L1 MFI at 33.3 nM (huPD-L1; Table E19, 33.3 nM): 6796; PD-L1 Fold change to WT CD80 (huPD-L1; [8]): 53.1 fold; Ratio of PDL1:CD28 (huPD-L1; Table E19, ratio of MFI at 33.3 nM): 13.6
990	15.0	6.5	2583	21855	11.4	8168	116.2	8	V22A/E35D/M47L/A71G (protein) VIHVTKEVKEVATLSCGHNVSAEELAQTRIYWQKDKKMVLTMMSGDLNIWPEYKNRTIFDITNNLSIVILGLRPSDEGTYECVVLKYEKDAFKREHLAEVTLSVKAD	–
823	12.5	4.4	1762	27768	14.5	5097	72.5	6	M47I/A71G (protein) VIHVTKEVKEVATLSCGHNVSVEELAQTRIYWQKEKKMVLTMMSGDINIWPEYKNRTIFDITNNLSIVILGLRPSDEGTYECVVLKYEKDAFKREHLAEVTLSVKAD	–
816	12.4	5.2	2078	25859	13.5	5627	80.0	7	E35D/M47I/N48K/I61F (protein) VIHVTKEVKEVATLSCGHNVSVEELAQTRIYWQKDKKMVLTMMSGDIKIWPEYKNRTIFDFTNNLSIVILALRPSDEGTYECVVLKYEKDAFKREHLAEVTLSVKAD	–
200	3.0	3.7	1475	26878	14.0	7138	101.5	36	E35D/M43I/D46E/A71G/L85M (protein) VIHVTKEVKEVATLSCGHNVSVEELAQTRIYWQKDKKMVLTMISGEMNIWPEYKNRTIFDITNNLSIVILGLRPSDEGTYECVVMKYEKDAFKREHLAEVTLSVKAD	–
